# T1: Par(1-170) (Staphylococcus aureus plasmid pSK1, UniProt Q9L8I7 1-170)
# T1 sequence: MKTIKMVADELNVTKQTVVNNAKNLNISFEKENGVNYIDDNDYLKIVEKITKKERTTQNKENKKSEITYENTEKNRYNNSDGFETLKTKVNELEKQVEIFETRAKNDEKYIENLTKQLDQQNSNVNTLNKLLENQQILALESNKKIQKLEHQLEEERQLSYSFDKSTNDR
# B1: pSK1 Par(78–170) (domain or fragment)
# chain: NNSDGFETLKTKVNELEKQVEIFETRAKNDEKYIENLTKQLDQQNSNVNTLNKLLENQQILALESNKKIQKLEHQLEEERQLSYSFDKSTNDR
# B2: pSK1 Par(1–170) (domain or fragment)
# chain: T1 sequence
# B3: palindromic 18-mer (crystallization site), FP (dsDNA)
# DNA 1: ATGTTAGGTACCTAACTA
# DNA 2: TAGTTAGGTACCTAACAT
# B4: centromere repeat 1 (dsDNA)
# DNA 1: ATGTTAGGTGCCTAACTA
# DNA 2: TAGTTAGGCACCTAACAT
# B5: centromere repeat 4 (dsDNA)
# DNA 1: ATGTTAGGCGGTAAACTA
# DNA 2: TAGTTTACCGCCTAACAT
# B6: centromere repeat 3 (dsDNA)
# DNA 1: ATGTTAGGTGGTAAACTA
# DNA 2: TAGTTTACCACCTAACAT
# B7: centromere repeat 6 (dsDNA)
# DNA 1: ATGTTAGGTACTTAGCTA
# DNA 2: TAGCTAAGTACCTAACAT
# B8: half site mutant 18-mer (dsDNA)
# DNA 1: ATGTTAGGTACCCGACTA
# DNA 2: TAGTCGGGTACCTAACAT
# B9: centromere repeat 2/5/7 (dsDNA)
# DNA 1: ATGTTAGGTAGTAAACTA
# DNA 2: TAGTTTACTACCTAACAT
# Target: the molecule itself
# Test: SEC
row,Binder,stoichiometry N
1,B1,4
2,B2,4

# Target: T1, Par(1-170)
# Test: fluorescence polarization
row,Binder,Kd [nM]
1,B3,43.4 ± 1.5
2,B4,67.5 ± 3.2
3,B5,140 ± 10
4,B6,62.7 ± 1.3
5,B7,90.2 ± 5.6
6,B8,195 ± 10.8
7,B9,66.5 ± 4.9

# Reference: publication PMC9595883 (Journal of molecular biology, 2022)
